Experimental data published in patent US20230312689A1.

Biological target: two kinds of spike viruses (Wuhan type S, European type SD614G)
Experiment: cell-based or functional assay

B1: CTMA9-105 (antibody, V domains shown)
VH: EVQLVESGGGLIQPGGSLRLSCAASGITVSSNYMSWVRQAPGKGLEWVSLIYSGGSTYYADSVKGRFTISRDNSKNTLYLQMNSLRAEDTAVYYCARDLEEAGGMDVWGQGTTVTVSS
VL: DIVMTQSPGTLSLSPGERATLSCRASQSVPSIYLAWYQQRPGQAPRLLIYGASSRATGIPDRFSGSGSGTDFTLTISRLEPEDFAVYYCQQYGSSPGTFGQGTKVEIK
IC50, pseudovirus neutralization test using the purified antibody: 2 to 6 ng/mL
